Data on two molecules can be found in patent US7838288B2, “Modulators of odorant receptors” (Duke University, priority 2004, dated 2010).

The subject of assay [1] is MOR203-1. The assay can be described thus: Living-cell staining of cell-surface MOR203-1. It counts as cell-based, mouse. Conditions: accessory protein co-transfected in 293T cells. From the text:
After hypothesizing that mammalian ORs require accessory protein(s) for functional cell surface expression, a search was instituted for detecting such molecule(s). Long-SAGE (serial analysis of gene expression) libraries (see, e.g., Saha, S., et al., (2002) Nat Biotechnol 20, 508-512; herein incorporated by reference in its entirety) were constructed from single olfactory neurons as well as neurons from the vomeronasal organ and genes were collected that are expressed by these neurons. To identify candidate genes expressed by the olfactory neurons Digital Differential Display (see, e.g., http://www, followed by, .ncbi.nlm.nih.gov/UniGene/info_ddd.shtml) was also used. Candidate genes were investigated for ORFs that encode membrane associated proteins. Genes were selected with similarities to known chaperones and cloned the cDNAs from olfactory epithelium cDNAs. The mRNA expression of each gene was verified by in situ hybridization. After isolating and subcloning into mammalian expression vectors, each cDNA together with a mouse OR (MOR203-1) tagged with a 20 N-terminal amino acids of rhodopsin (Rho-tag), was transfected into 293T cells. We measured whether these clones had any effect on the cell-surface expression of ORs by staining living cells using antibodies against the Rho-tag (see, e.g., Laird, D. W., and Molday, R. S. (1988) Invest Opthalmol Vis Sci 29, 419-428; herein incorporated by reference in its entirety). When MOR203-1 was transfected alone, antibody staining detected only faint cell-surface expression in less than 1% of the cells. A schematic diagram outlining the screening procedure utilized with the present invention is provided at FIG. 1.
293T cells were maintained in minimal essential medium containing 10% fetal bovine serum (M10). Lipofectamine 2000 (Invitrogen) was used for transfection. In live-cell staining, 16 hours after transfection, cells were incubated in M10 containing anti rhodopsin antibody, 4D2 (see, e.g., Laird, D. W., and Molday, R. S. (1988) Invest Opthalmol V is Sci 29, 419-428; herein incorporated by reference in its entirety) and 15 mM NaN3 at 4 degrees C. for 1 hour. After washing, cells were incubated with Cy3-conjugated anti mouse IgG (Jackson Immunologicals), washed and mounted. For FACS analysis, 4D2 and PE-conjugated anti mouse IgG (Jackson Immunologicals) were used to monitor the Rho tagged receptor expression. Anti HA rabbit antibodies (Sigma) and Alexa 488 conjugated anti rabbit IgG (Molecular Probes) was used to stain the HA-β2 adrenergic receptor. To establish the Hana3a cells, 1 ug/ml of puromycin was used for selection. 96 colonies were picked and assayed using luciferase assay using OREG.

Assay [2] has as its target T1, mouse odorant receptor OREG (Mus musculus, UniProt Q920P2).
T1 construct: expressed in transfected cells; host or cells: 293T cells (with or without co-transfected REEP1/RTP1/RTP2) and Hana3A cells (293T stably expressing mouse REEP1, RTP1, RTP2, Galpha-olf)
T1 sequence (Q920P2 1-313): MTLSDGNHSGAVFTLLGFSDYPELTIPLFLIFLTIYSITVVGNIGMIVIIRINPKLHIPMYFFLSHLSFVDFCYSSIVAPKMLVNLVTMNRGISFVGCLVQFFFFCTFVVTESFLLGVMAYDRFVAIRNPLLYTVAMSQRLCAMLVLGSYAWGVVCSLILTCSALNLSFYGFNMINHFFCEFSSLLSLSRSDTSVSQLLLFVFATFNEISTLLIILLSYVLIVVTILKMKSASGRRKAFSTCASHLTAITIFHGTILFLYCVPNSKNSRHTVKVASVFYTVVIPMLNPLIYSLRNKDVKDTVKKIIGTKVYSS
The assay can be described thus: CRE-luciferase reporter gene assay, OREG. Conditions: 293T cells; compared to OR alone or control pCI. It counts as cell-based. From the text: Poor odorant evoked signaling activity in heterologous cell culture systems expressing ORs has been attributed to the poor cell surface expression of ORs. The identification of REEP and/or RTP allowed a direct assessment of this issue. A luciferase reporter gene assay was employed in which a cAMP responsive element (CRE) mediated luciferase gene expression (see FIG. 8A). Because OR activation leads to an increase in cAMP, activation of the mouse odorant receptor OREG by its ligand eugenol was measured in the presence and absence of REEP and/or RTP (see, e.g., Kajiya, K., et al. (2001) J Neurosci 21, 6018-6025; Touhara, K., et al., (1999) Proc Natl Acad Sci USA 96, 4040-4045; each herein incorporated by reference in their entireties). As reported previously, eugenol increased levels of OREG dependent luciferase activity (see, e.g., Katada, S., et al. (2003) Biochem Biophys Res Commun 305, 964-969; herein incorporated by reference in its entirety).
To facilitate analysis of odorant-OR interactions, 293T cell lines were established which stably express REEP1, RTP1, RTP2 and Gαolf, the G protein alpha subunit that couples to OR (see, e.g., Belluscio, L., et al. (1998) Neuron 20, 69-81; Jones, D. T., and Reed, R. R. (1989). Science 244, 790-795; each herein incorporated by reference in their entireties). To establish such cells, linearized expression vectors containing mouse REEP1, RTP1, RTP2 and Gαolf ORFs were transfected into 293T cells with PGK-Pac (puromycin resistant gene) (see, e.g., Watanabe, S., et al. (1995) Biochem Biophys Res Commun 213, 130-137; herein incorporated by reference in its entirety). […] Enhanced cell-surface expression was observed when OREG or other ORs were transfected in Hana3A cells and immunostained (see FIG. 10). […] Expression of Gαolf alone in 293T cells had little or no effect on OR activation using this assay.
Dual-Glo system (Promega) for luciferase assay was used. CRE-Luciferase (Stratagene) was used to measure the receptor activities. Renilla luciferase driven by constitutively active SV40 promoter (pRL-SV40: Promega) was used as an internal control. Cells were plated on poly-D-lysine coated 96 well plates (BIOCOAT, Beckton Dickinson). After 8 hours (for experiments shown in FIGS. 8B and 8C) or 12 hours (for experiments shown in FIG. 8D and FIG. 11) after transfection, the medium was replaced with CD293 chemically defined medium (Invitrogen) and the plates were incubated for one hour at 37 degrees C. The medium was replaced with 50 ul of odorant solutions dissolved in CD293 and incubated for 10 hours (for experiments shown in FIGS. 8B and 8C) or 4 hours (for experiments shown in FIG. 8D and FIG. 11) at 37 degrees C. The manufacture's protocol for measuring luciferase and Renilla luciferase activities was followed. Luminescence was measured using Wallac Victor 1420 (Perkin-Elmer). Normalized luciferase activity was calculated as [Luc (N)-Luc (0)]/RL (N), where Luc (N)=Luminescent count of a certain well, Luc (0)=Luminescent count without odorant for each OR, and RL (N)=Luminescent count of Renilla Luciferase of each well. For cAMP assays, cells were plated onto 24-well plate. […]. Prism software (Graphpad) was used for data analysis.
(Reporter assays use an easily measured gene product as a stand-in for the process of interest.)

Assay [3] relates to MOR203-1. The assay can be described thus: Co-immunoprecipitation with HA-tagged MOR203-1. In kind it is binding, mouse. Conditions: Flag-tagged protein, 293T cells, HA-MOR203-1 precipitated. The protocol: Given the ability of REEP and/or RTP to promote cell-surface expression of ORs, it was hypothesized that they may also interact with OR proteins. This was assessed using co-immunoprecipitation assays. HA-tagged MOR203-1 and Flag-tagged REEP1, RTP1 or ICAP-1, a negative control (see, e.g., Zawistowski, J. S., et al. (2002) Hum Mol Genet. 11, 389-396; herein incorporated by reference in its entirety) were transfected in 293T cells. After the cell extracts were precipitated with anti-Flag antibodies, proteins were eluted in SDS-sample buffer at room temperature whereupon western blotting analysis was performed to detect the OR proteins. OR proteins were detected as high molecular weight bands after precipitation of REEP1 or RTP1 (see FIG. 7B, lanes 1 and 2). […] The present invention is not limited to a particular mechanism. Indeed, an understanding of the mechanism is not necessary to practice the present invention.
293T cells in 100 mm dishes were transfected with ORs, REEP1, and/or RTP1 cDNAs. 16 hours after transfection, cells were lysed in lysis buffer (50 mM Tris (7.4), 150 mM NaCl, 1% NP-40, 0.5 mM PMSF, 2 mM Benzamidene, 0.5 ug/ml Leupeptin, 1.4 ug/ml pepstatin A, 2.4 ug/ml chymostatin, 15 ug/ml aprotinin, 1 mM sodium orthovanadate). The lysis were incubated with anti-Flag M2 affinity gel (Sigma) or anti-HA affinity matrix (Roche) for 2 hours at 4 degrees C. and washed with lysis buffer. Subsequently, the bound proteins were eluted by incubation with SDS sample buffer at room temperature for 2 hours. SDS-PAGE and western blotting were performed according to Mini-Protean 3 Cell (Bio-Rad) instruction manual. ECL (Amersham) was used for detecting proteins on membranes.

B1: REEP1: Receptor Expression Enhancing Protein 1; murine SEQ ID NO: 21, human SEQ ID NO: 27 (protein, listed as Mus musculus)
chain: MVSWIISRLVVLIFGTLYPAYYSYKAVKSKDIKEYVKWMMYWIIFALFTTAETFTDIFLCWFPFYYELKIAFVAWLLSPYTKGSSLLYRKFVHPTLSSKEKEIDDCLVQAKDRSYDALVHFGKRGLNVAATAAVMAASKGQGALSERLRSFSMQDLTTIRGDGAPAPSGPPPPGTGRSSGKHSQPKMSRSASESAGSSGTA
B1: in assay [1], the “cell surface expression of MOR203-1” value was “enhanced both the number and staining intensity of cell surface expression”. Moreover, the “OREG activity by luciferase, accessory protein co-expressed” value in assay [2] is “enhanced luciferase activities compared to OR alone”. In assay [3], the “co-precipitation with HA-MOR203-1” value is given as “co-precipitated”.

B2: RTP1: Receptor Transporting Protein 1; murine SEQ ID NO: 33, human SEQ ID NO: 37 (protein, listed as Mus musculus)
chain: MRIFRPWRLRCPALHLPSFPTFSIKCSLPPLPTDEDMCKSVTTGEWKKVFYEKMEEVKPADSWDFIIDPNLKHNVLAPGWKQYLELHASGRFHCSWCWHTWQSPHVVILFHMYLDKAQRAGSVRMRVFKQLCYECGTARLDESSMLEENIESLVDNLITSLREQCYGERGGHYRIHVASRQDNRRHRGEFCEACQEGIVHWKPSEKLLEEEATTYTFSRAPSPTKPQAETGSGCNFCSIPWCLFWATVLMLIIYLQFSFRTSV
For B2, in assay [1], the “cell surface expression of MOR203-1” value is “enhanced both the number and staining intensity of cell surface expression”. In addition, the “OREG activity by luciferase, accessory protein co-expressed” value in assay [2] is reported as “enhanced luciferase activities compared to OR alone”. In addition, the “co-precipitation with HA-MOR203-1” value in assay [3] is recorded as “co-precipitated”.
